US20120220492A1

Experiments:
antibody against CD29 = assay: cell-based or functional assay
antibody against c-kit = assay: cell-based or functional assay

| Substance | infectious titers on Jurkat cells (GFP positive cells by FACS) (antibody against CD29; scale: times higher than virus with a wildtype capsid) | transduction efficiency on MO7E cells (antibody against c-kit) | transduction efficiency on MO7E cells (fold higher than wildtype) (antibody against c-kit) | transgene expression (antibody against c-kit; scale: fold higher than virus with wildtype capsid) | transgene expression (antibody against c-kit; scale: times higher than virus with wildtype capsid) | infectivity on Jurkat cells (fold lower than the 25% virus) (antibody against CD29) | infectivity on MO7E cells (fold lower than the 25% virus) (antibody against c-kit) |
| --- | --- | --- | --- | --- | --- | --- | --- |
| AAV mosaic composed of 25% mutant capsid proteins with a Protein A fragment (Z34C) insertion at position 587 (from UniProt P03135 1-735; P03135 139-735; P03135 203-735; P03135 139-735; P03135 203-735) | 2 to 3 | 10 fold | 100 | 100 | 100000 |  |  |
| AAV mosaic composed of 50% mutant capsid proteins with a Protein A fragment (Z34C) insertion at position 587 (from UniProt P03135 1-735; P03135 139-735; P03135 203-735; P03135 139-735; P03135 203-735) |  |  |  |  |  | 2 | 3 |
